Reference: article PMC10590275 (Nature structural & molecular biology, 2023)

Experiments:
[1] = biological target: human dynein_(MOTOR)^MT-B (microtubule-bound mutant motor domain) (human | T. thermophilus); experiment: mass photometry
[2] = biological target: the molecule itself; experiment: mass photometry

B1: human LIS1-SNAP (natural protein)
chain: VLSQRQRDELNRAIADYLRSNGYEEAYSVFKKEAELDVNEELDKKYAGLLEKKWTSVIRLQKKVMELESKLNEAKEEFTSGGPLGQKRDPKEWIPRPPEKYALSGHRSPVTRVIFHPVFSVMVSASEDATIKVWDYETGDFERTLKGHTDSVQDISFDHSGKLLASCSADMTIKLWDFQGFECIRTMHGHDHNVSSVAIMPNGDHIVSASRDKTIKMWEVQTGYCVKTFTGHREWVRMVRPNQDGTLIASCSNDQTVRVWVVATKECKAELREHEHVVECISWAPESSYSSISEATGSETKKSGKPGPFLLSGSRDKTIKMWDVSTGMCLMTLVGHDNWVRGVLFHSGGKFILSCADDKTLRVWDYKNKRCMKTLNAHEHFVTSLDFHKTAPYVVTGSVDQTVKVWECR
[1]
  stoichiometry N: 1 LIS1 dimer per dynein_(MOTOR) monomer
[2]
  stoichiometry N: 2
